Literature values as cited in publication PMC3433420.
Like-named read-outs stand apart in the source and are kept apart here.

Experiments:
Details in all cases: cited from earlier work
SUPT6H (Homo sapiens) = SUPT6H (Homo sapiens) (UniProt Q7KZ85)
FGR (Homo sapiens) [1] = target: FGR (Homo sapiens) (UniProt P09769)
GRB7 (Homo sapiens) [2] = target: GRB7 (Homo sapiens) (UniProt Q14451)
SH2B2 (Homo sapiens) = SH2B2 (Homo sapiens) (UniProt O14492)
TNS4 (Homo sapiens) = TNS4 (Homo sapiens) (UniProt Q8IZW8)
Chain of TNS4 (Homo sapiens) (Q8IZW8 444-561): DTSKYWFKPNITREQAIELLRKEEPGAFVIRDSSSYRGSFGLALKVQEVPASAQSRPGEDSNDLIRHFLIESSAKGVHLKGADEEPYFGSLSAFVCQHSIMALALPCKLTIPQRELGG

SH2D3C (Homo sapiens) = SH2D3C (Homo sapiens) (UniProt Q8N5H7)
Chain of SH2D3C (Homo sapiens) (Q8N5H7 215-324): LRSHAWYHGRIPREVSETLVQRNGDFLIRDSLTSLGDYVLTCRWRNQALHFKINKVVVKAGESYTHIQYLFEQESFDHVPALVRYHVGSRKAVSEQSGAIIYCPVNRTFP

PIK3R3-NC (Homo sapiens) [3] = target: PIK3R3-NC (Homo sapiens) (UniProt Q92569)
SYK-NC (Homo sapiens) = SYK-NC (Homo sapiens) (UniProt P43405)
PIK3R3-NC (Homo sapiens) [4] = target: PIK3R3-NC (Homo sapiens) (UniProt Q92569); remark: listed apart in the source
FER (Homo sapiens) = FER (Homo sapiens) (UniProt P16591)
Chain of FER (Homo sapiens) (P16591 455-555): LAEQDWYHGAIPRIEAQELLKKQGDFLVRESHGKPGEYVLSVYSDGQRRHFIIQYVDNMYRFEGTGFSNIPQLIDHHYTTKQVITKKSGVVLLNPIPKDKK

ABL2 (Homo sapiens) [5] = target: ABL2 (Homo sapiens) (UniProt P42684)
Chain of ABL2 (Homo sapiens) (P42684 168-268): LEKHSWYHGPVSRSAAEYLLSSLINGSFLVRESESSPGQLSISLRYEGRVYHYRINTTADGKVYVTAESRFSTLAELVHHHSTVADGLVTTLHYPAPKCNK

SH3BP2 (Homo sapiens) = SH3BP2 (Homo sapiens) (UniProt P78314)
Chain of SH3BP2 (Homo sapiens) (P78314 452-560): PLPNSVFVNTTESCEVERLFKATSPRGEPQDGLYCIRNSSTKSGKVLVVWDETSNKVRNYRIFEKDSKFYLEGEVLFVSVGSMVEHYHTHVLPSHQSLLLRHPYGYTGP

ABL1 (Homo sapiens) = ABL1 (Homo sapiens) (UniProt P00519)
Chain of ABL1 (Homo sapiens) (P00519 122-222): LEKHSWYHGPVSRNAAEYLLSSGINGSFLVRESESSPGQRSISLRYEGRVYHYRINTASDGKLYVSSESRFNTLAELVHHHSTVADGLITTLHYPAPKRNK

ITK (Homo sapiens) [6] = target: ITK (Homo sapiens) (UniProt Q08881)
Chain of ITK (Homo sapiens) (Q08881 234-343): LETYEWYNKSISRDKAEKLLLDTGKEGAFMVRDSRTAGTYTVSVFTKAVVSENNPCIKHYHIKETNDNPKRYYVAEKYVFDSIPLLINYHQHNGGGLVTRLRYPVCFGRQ

SHC1 (Homo sapiens) = SHC1 (Homo sapiens) (UniProt P29353)
Chain of SHC1 (Homo sapiens) (P29353 483-583): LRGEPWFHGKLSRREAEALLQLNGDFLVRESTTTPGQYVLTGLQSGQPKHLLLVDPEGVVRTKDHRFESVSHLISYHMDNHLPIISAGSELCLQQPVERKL

SOCS6 (Homo sapiens) = SOCS6 (Homo sapiens) (UniProt O14544)
Chain of SOCS6 (Homo sapiens) (O14544 379-496): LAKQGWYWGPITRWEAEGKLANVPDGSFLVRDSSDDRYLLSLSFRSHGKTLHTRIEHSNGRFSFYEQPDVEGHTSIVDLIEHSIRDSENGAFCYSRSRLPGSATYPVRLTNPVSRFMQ

SOCS1 (Homo sapiens) = SOCS1 (Homo sapiens) (UniProt O15524)
Chain of SOCS1 (Homo sapiens) (O15524 74-179): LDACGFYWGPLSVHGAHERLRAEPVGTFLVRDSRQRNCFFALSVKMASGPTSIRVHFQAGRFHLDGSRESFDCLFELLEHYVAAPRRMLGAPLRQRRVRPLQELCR

SOCS3 (Homo sapiens) = SOCS3 (Homo sapiens) (UniProt O14543)
Chain of SOCS3 (Homo sapiens) (O14543 41-147): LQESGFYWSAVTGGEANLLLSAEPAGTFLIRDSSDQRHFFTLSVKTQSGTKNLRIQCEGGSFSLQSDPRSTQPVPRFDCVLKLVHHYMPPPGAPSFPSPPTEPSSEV

FGR (Homo sapiens) [7] = target: FGR (Homo sapiens) (UniProt P09769); remark: listed apart in the source
SHC4 (Homo sapiens) = SHC4 (Homo sapiens) (UniProt Q6S5L8)
Chain of SHC4 (Homo sapiens) (Q6S5L8 521-622): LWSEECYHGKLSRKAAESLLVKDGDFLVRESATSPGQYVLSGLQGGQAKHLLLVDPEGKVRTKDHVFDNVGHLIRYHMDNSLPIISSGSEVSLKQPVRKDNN

GRB7 (Homo sapiens) [8] = target: GRB7 (Homo sapiens) (UniProt Q14451); remark: listed apart in the source
VAV1 (Homo sapiens) = VAV1 (Homo sapiens) (UniProt P15498)
Chain of VAV1 (Homo sapiens) (P15498 666-770): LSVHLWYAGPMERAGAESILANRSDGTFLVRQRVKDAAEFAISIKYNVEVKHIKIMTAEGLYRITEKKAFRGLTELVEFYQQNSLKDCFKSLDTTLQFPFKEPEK

SYK-N (Homo sapiens) = SYK-N (Homo sapiens) (UniProt P43405)
PLCG2-NC (Homo sapiens) = PLCG2-NC (Homo sapiens) (UniProt P16885)
Chain of PLCG2-NC (Homo sapiens) (P16885 527-740): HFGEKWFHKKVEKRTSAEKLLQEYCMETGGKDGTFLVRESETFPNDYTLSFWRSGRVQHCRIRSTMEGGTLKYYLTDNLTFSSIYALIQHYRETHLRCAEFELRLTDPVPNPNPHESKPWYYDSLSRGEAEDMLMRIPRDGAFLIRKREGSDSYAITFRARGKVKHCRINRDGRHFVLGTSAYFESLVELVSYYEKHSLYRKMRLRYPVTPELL

NCK1 (Homo sapiens) = NCK1 (Homo sapiens) (UniProt P16333)
SOCS2 (Homo sapiens) = SOCS2 (Homo sapiens) (UniProt O14508)
Chain of SOCS2 (Homo sapiens) (O14508 43-161): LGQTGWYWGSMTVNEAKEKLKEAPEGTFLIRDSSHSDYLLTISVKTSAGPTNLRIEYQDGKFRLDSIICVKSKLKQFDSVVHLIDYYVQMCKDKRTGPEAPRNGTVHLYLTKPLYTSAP

ITK (Homo sapiens) [9] = target: ITK (Homo sapiens) (UniProt Q08881); remark: listed apart in the source
PLCG1-N (Homo sapiens) = PLCG1-N (Homo sapiens) (UniProt P19174)
Chain of PLCG1-N (Homo sapiens) (P19174 545-761): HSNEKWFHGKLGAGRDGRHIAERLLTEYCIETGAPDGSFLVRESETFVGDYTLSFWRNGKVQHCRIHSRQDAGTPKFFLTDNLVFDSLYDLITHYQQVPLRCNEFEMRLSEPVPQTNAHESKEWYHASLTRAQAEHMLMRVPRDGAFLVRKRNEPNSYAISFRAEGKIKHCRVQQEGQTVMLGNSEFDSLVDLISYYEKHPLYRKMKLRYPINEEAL

ABL2 (Homo sapiens) [10] = target: ABL2 (Homo sapiens) (UniProt P42684); remark: listed apart in the source
VAV3 (Homo sapiens) = VAV3 (Homo sapiens) (UniProt Q9UKW4)
Chain of VAV3 (Homo sapiens) (Q9UKW4 667-771): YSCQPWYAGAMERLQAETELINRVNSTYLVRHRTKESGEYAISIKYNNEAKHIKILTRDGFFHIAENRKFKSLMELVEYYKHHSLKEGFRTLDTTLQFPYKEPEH

SYK-C (Homo sapiens) = SYK-C (Homo sapiens) (UniProt P43405)

Chain of GRB7 (Homo sapiens) (Q14451 426-532): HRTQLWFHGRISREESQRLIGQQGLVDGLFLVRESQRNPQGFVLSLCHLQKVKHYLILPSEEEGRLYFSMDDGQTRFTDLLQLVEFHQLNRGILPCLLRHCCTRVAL
Chain of SH2B2 (Homo sapiens) (O14492 412-520): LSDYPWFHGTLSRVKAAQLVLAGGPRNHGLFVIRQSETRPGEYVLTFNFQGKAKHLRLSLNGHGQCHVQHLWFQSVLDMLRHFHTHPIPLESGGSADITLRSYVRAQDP
Chain of SUPT6H (Homo sapiens) (Q7KZ85 1320-1436): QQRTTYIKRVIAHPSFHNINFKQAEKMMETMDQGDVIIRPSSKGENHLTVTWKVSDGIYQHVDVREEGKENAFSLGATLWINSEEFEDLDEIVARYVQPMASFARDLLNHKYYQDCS

Substance: …pYLVPQQGF
- apparent Kd (screen) (SUPT6H (Homo sapiens)): 912 nM
- apparent Kd (screen) (FGR (Homo sapiens) [1]): 2000 nM
- apparent Kd (screen) (GRB7 (Homo sapiens) [2]): 1800 nM
- apparent Kd (screen) (SH2B2 (Homo sapiens)): 2000 nM

Substance: …pYLIPQQGFd
- apparent Kd (screen) (TNS4 (Homo sapiens)): 922 nM
- apparent Kd (screen) (SH2D3C (Homo sapiens)): 2000 nM
- apparent Kd (screen) (PIK3R3-NC (Homo sapiens) [3]): 204 nM
- apparent Kd (screen) (SYK-NC (Homo sapiens)): 611 nM
- apparent Kd (screen) (PIK3R3-NC (Homo sapiens) [4]): 203 nM

Substance: …pYEEMRAFQ
- apparent Kd (screen) (FER (Homo sapiens)): 499 nM
- apparent Kd (screen) (ABL2 (Homo sapiens) [5]): 44 nM
- apparent Kd (screen) (SH3BP2 (Homo sapiens)): 2000 nM
- apparent Kd (screen) (ABL1 (Homo sapiens)): 633 nM
- apparent Kd (screen) (ITK (Homo sapiens) [6]): 499 nM

Substance: …pYWDQDPPE
- apparent Kd (screen) (SHC1 (Homo sapiens)): 2000 nM
- apparent Kd (screen) (SOCS6 (Homo sapiens)): 2000 nM
- apparent Kd (screen) (SOCS1 (Homo sapiens)): 1920 nM
- apparent Kd (screen) (SOCS3 (Homo sapiens)): 2000 nM
- apparent Kd (screen) (FGR (Homo sapiens) [7]): 2000 nM
- apparent Kd (screen) (SHC4 (Homo sapiens)): 2000 nM
- apparent Kd (screen) (GRB7 (Homo sapiens) [8]): 253 nM
- apparent Kd (screen) (VAV1 (Homo sapiens)): 2000 nM
- apparent Kd (screen) (SYK-N (Homo sapiens)): 203 nM
- apparent Kd (screen) (PLCG2-NC (Homo sapiens)): 2000 nM
- apparent Kd (screen) (NCK1 (Homo sapiens)): 2000 nM
- apparent Kd (screen) (SOCS2 (Homo sapiens)): 2000 nM
- apparent Kd (screen) (ITK (Homo sapiens) [9]): 224 nM
- apparent Kd (screen) (PLCG1-N (Homo sapiens)): 2000 nM
- apparent Kd (screen) (ABL2 (Homo sapiens) [10]): 192 nM
- apparent Kd (screen) (VAV3 (Homo sapiens)): 2000 nM
- apparent Kd (screen) (SYK-C (Homo sapiens)): 1970 nM
